Measurements taken from patent publication US20260167721A1 (ABLEXIS, published 2026).
Positions count from the first letter of the chain named. Values belong to the binder of their own block, whether it stands above or below them.

What was measured:
[1] = molecular target: T1, recombinant human CD3 epsilon/gamma heterodimer (human, UniProt P07766 23-126; P09693 23-116); assay: Octet BLI, mAb on FAB2G sensor, hCD3 E/G 200-50 nM; R^2 0.94
T1 construct: Recombinant protein in solution (200-50 nM) in the Octet assay; also called hCD3 E/G
T1 sequence (P07766 23-126, chain 1 of 2): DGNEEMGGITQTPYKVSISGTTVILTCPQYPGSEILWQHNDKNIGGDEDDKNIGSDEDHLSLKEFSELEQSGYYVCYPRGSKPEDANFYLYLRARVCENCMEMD
T1 sequence (P09693 23-116, chain 2 of 2): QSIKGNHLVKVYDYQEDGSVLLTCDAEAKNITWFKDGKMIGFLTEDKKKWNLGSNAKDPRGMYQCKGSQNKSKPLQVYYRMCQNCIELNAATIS

[2] = molecular target: T2, recombinant human CD3 epsilon/delta heterodimer (human, UniProt P07766 23-126; P04234 22-105); assay: Octet BLI, mAb on FAB2G sensor, hCD3 E/D 200-50 nM; R^2 0.94
T2 construct: Recombinant protein in solution (200-50 nM) in the Octet assay; also called hCD3 E/D; human CD3E/D
T2 sequence (P07766 23-126, stated change not applied, chain 1 of 2): as the sequence (P07766 23-126, chain 1 of 2) above
T2 sequence (P04234 22-105, stated change not applied, chain 2 of 2): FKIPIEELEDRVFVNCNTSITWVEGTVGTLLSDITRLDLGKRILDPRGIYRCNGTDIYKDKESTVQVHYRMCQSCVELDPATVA

[3] = molecular target: T2, recombinant human CD3 epsilon/delta …; assay: Octet BLI, mAb on FAB2G sensor, hCD3 E/D 200-50 nM; R^2 0.96
[4] = molecular target: T1, recombinant human CD3 epsilon/gamma …; assay: Octet BLI, mAb on FAB2G sensor, hCD3 E/G 200-50 nM; R^2 0.96
[5] = molecular target: CD3 on effector cells (human Pan-T or PBMC) (human, UniProt P07766 23-207; P04234 22-171; P09693 23-182; P20963 22-164); assay: cell-based or functional assay
CD3 on effector cells (human Pan-T or PBMC), sequence (P07766 23-207, chain 1 of 4): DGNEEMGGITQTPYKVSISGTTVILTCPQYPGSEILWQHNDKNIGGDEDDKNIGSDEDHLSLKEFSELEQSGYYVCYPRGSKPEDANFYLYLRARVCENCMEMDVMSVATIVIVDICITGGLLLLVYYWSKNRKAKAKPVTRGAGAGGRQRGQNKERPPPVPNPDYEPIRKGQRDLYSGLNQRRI
CD3 on effector cells (human Pan-T or PBMC), sequence (P04234 22-171, chain 2 of 4): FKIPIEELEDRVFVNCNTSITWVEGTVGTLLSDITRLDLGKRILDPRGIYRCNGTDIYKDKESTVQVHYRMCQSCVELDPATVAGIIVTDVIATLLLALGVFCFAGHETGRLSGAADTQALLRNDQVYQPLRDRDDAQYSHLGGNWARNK
CD3 on effector cells (human Pan-T or PBMC), sequence (P09693 23-182, chain 3 of 4): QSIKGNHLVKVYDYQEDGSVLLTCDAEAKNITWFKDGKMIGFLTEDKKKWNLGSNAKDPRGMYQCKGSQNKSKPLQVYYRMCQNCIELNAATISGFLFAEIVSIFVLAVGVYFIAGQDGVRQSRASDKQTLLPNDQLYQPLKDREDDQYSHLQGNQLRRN
CD3 on effector cells (human Pan-T or PBMC), sequence (P20963 22-164, chain 4 of 4): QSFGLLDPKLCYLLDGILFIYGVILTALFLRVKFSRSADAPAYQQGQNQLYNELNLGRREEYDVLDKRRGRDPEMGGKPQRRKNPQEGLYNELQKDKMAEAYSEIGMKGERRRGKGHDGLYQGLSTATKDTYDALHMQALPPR

recombinant CD3 proteins [6] = assay: Octet (BLI), bispecific antibody against recombinant CD3 proteins
recombinant CD3 proteins [7] = molecular target: T3, recombinant CD3 proteins (UniProt P07766 23-126); assay: Octet BLI, recombinant CD3; Full R^2 0.9882
T3 construct: elsewhere it uses human CD3 E/D and E/G heterodimers
T3 sequence (P07766 23-126): as the sequence (P07766 23-126, chain 1 of 2) above

recombinant CD3 proteins [8] = molecular target: T3, recombinant CD3 proteins; assay: Octet BLI, recombinant CD3; Full R^2 0.8253
recombinant CD3 proteins [9] = molecular target: T3, recombinant CD3 proteins; assay: Octet BLI, recombinant CD3; Full R^2 0.9881
recombinant CD3 proteins [10] = molecular target: T3, recombinant CD3 proteins; assay: Octet BLI, recombinant CD3; Full R^2 0.987
recombinant CD3 proteins [11] = molecular target: T3, recombinant CD3 proteins; assay: Octet BLI, recombinant CD3; Full R^2 0.9905
recombinant CD3 proteins [12] = molecular target: T3, recombinant CD3 proteins; assay: Octet BLI, recombinant CD3; Full R^2 0.9778

Kd [1]: 2.5 nM
Response [1]: 0.44
koff [1]: 0.000852 s⁻¹
kon [1]: 341000 M⁻¹ s⁻¹
Kd [2]: 2.63 nM
koff [2]: 0.000816 s⁻¹
kon [2]: 310000 M⁻¹ s⁻¹
B1: ABL-CD3-29 (antibody, V domains shown)
VH: EVQLVQSGAEVKKPGESLKISCKGSGYSFISYWIAWVRQMPGKGLEWMGIIYPGDSETRYRPSFQGQVTISADKSINTAYLQWSSLKAADTAMYYCARQGAYDGFDIWGQGTMVTVSS
VL: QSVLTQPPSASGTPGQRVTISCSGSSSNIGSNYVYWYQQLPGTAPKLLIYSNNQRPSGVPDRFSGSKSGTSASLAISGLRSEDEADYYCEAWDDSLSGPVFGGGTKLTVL
notes: Chimeric hybridoma mAb: human V, CH1, upper hinge; mouse middle hinge, CH2, CH3

Kd [3]: 56.2 nM
Response [3]: 0.33
koff [3]: 0.0206 s⁻¹
kon [3]: 366000 M⁻¹ s⁻¹
Kd [4]: 60 nM
koff [4]: 0.0155 s⁻¹
kon [4]: 259000 M⁻¹ s⁻¹
B2: ABL-CD3-33 (antibody, V domains shown)
VH: EVQLVESGGGLVKPGGSLRLSCAASGFTFSSYSMNWVRQAPGKGLEWVSSISRSSSYIYYADSVKGRFTISRDNAKNSLYLQMNSLRAEDTAVYYCAREPPTLGMDYWGQGTLVTVSS
VL: NFMLTQPHSVSESPGKTVTISCTRSSGSIASNYVQWYQQRPGSSPTTVIYEDNQRPSGVPDRFSGSIDSSSNSASLTISGLKTEDEADYYCQSYYNSNRVFGGGTKLTVL
notes: as for B1

Kd (recombinant CD3 proteins [6]): 20.1 nM
Response (recombinant CD3 proteins [6]): 0.73
koff (recombinant CD3 proteins [6]): 0.00652 s⁻¹
kon (recombinant CD3 proteins [6]): 325000 M⁻¹ s⁻¹
B3: Control Humanized anti-CD3 (high affinity) scFv-Fc knob/TM, as bispecific with gemtuzumab (bispecific antibody)
scFv: EVQLVESGGGLVQPGGSLRLSCAASGFTFSTYAMNWVRQAPGKGLEWVGRIRSKYNNYATYYADSVKGRFTISRDDSKNTLYLQMNSLRAEDTAVYYCVRHGNFGDSYVSWFAYWGQGTLVTVSSGKPGSGKPGSGKPGSGKPGSQAVVTQEPSLTVSPGGTVTLTCGSSTGAVTTSNYANWVQQKPGKSPRGLIGGTNKRAPGVPARFSGSLLGGKAALTISGAQPEDEADYYCALWYSNHWVFGGGTKLTVLGGGGSDKTHTCPPCPAPEFEGGPSVFLFPPKPKDTLMISRTPEVTCVVVDVSHEDPEVKFNWYVDGVEVHNAKTKPREEQYNSTYRVVSVLTVLHQDWLNGKEYKCKVSNKALPASIEKTISKAKGQPREPQVYTLPPCREEMTKNQVSLWCLVKGFYPSDIAVEWESNGQPENNYKTTPPVLDSDGSFFLYSKLTVDKSRWQQGNVFSCSVMHEALHNHYTQKSLSLSPGK
heavy: EVQLVQSGAEVKKPGSSVKVSCKASGYTITDSNIHWVRQAPGQSLEWIGYIYPYNGGTDYNQKFKNRATLTVDNPTNTAYMELSSLRSEDTAFYYCVNGNPWLAYWGQGTLVTVSSASTKGPSVFPLAPSSKSTSGGTAALGCLVKDYFPEPVTVSWNSGALTSGVHTFPAVLQSSGLYSLSSVVTVPSSSLGTQTYICNVNHKPSNTKVDKRVEPKSCDKTHTCPPCPAPEFEGGPSVFLFPPKPKDTLMISRTPEVTCVVVDVSHEDPEVKFNWYVDGVEVHNAKTKPREEQYNSTYRVVSVLTVLHQDWLNGKEYKCKVSNKALPASIEKTISKAKGQPREPQVCTLPPSREEMTKNQVSLSCAVKGFYPSDIAVEWESNGQPENNYKTTPPVLDSDGSFFLVSKLTVDKSRWQQGNVFSCSVMHEALHNRFTQKSLSLSPGK
light: DIQLTQSPSTLSASVGDRVTITCRASESLDNYGIRFLTWFQQKPGKAPKLLMYAASNQGSGVPSRFSGSGSGTEFTLTISSLQPDDFATYYCQQTKEVPWSFGQGTKVEVKRTVAAPSVFIFPPSDEQLKSGTASVVCLLNNFYPREAKVQWKVDNALQSGNSQESVTEQDSKDSTYSLSSTLTLSKADYEKHKVYACEVTHQGLSSPVTKSFNRGEC
RTCC EC50 (nM), KILR HL-60 T Cell Redirection cytotoxic assay with CD33-expressing target cells [5]: 0.03 nM

Kd (recombinant CD3 proteins [7]): 5.57 nM
koff (recombinant CD3 proteins [7]): 0.00234 s⁻¹
kon (recombinant CD3 proteins [7]): 421000 M⁻¹ s⁻¹
B4: CD3 × CD33-BspAb67 (bispecific antibody)
chain 1: not shown
chain 2: B3 heavy
chain 3: B3 light

Kd (recombinant CD3 proteins [6]): 50.3 nM
Response (recombinant CD3 proteins [6]): 0.3
koff (recombinant CD3 proteins [6]): 0.0121 s⁻¹
kon (recombinant CD3 proteins [6]): 241000 M⁻¹ s⁻¹
B5: Control Humanized anti-CD3 (low affinity) scFv-Fc knob/TM, as bispecific with gemtuzumab (bispecific antibody)
scFv: B3 scFv with A113D
heavy: B3 heavy
light: B3 light
RTCC EC50 (nM), KILR HL-60 T Cell Redirection cytotoxic assay with CD33-expressing target cells [5]: 1.48 nM

Kd (recombinant CD3 proteins [8]): 9.11 nM
koff (recombinant CD3 proteins [8]): 0.00554 s⁻¹
kon (recombinant CD3 proteins [8]): 609000 M⁻¹ s⁻¹
B6: CD3 × CD33-BspAb70 (bispecific antibody)
chain 1: EVQLVESGGGLVKPGGSLRLSCAASGFTFSSYSMKWVRQAPGKCLEWVSSISSSSSYIYYADSVKGRFTISRDNAKNSLYLQMNSLRAEDTAVYYCARDRGELTLWYWGQGTLVTVSSGGGGSGGGGSGGGGSGGGGSSYELTQPPSVSVSPGQTARITCSGDALPKKYAYWYQQKSGQAPVLVIYEDSKRPSGIPERFSGSSSGTMATLTISGAQVEDEADYYCYSTDSSGNHWVFGCGTKLTVLDKTHTCPPCPAPEFEGGPSVFLFPPKPKDTLMISRTPEVTCVVVDVSHEDPEVKFNWYVDGVEVHNAKTKPREEQYNSTYRVVSVLTVLHQDWLNGKEYKCKVSNKALPASIEKTISKAKGQPREPQVYTLPPCREEMTKNQVSLWCLVKGFYPSDIAVEWESNGQPENNYKTTPPVLDSDGSFFLYSKLTVDKSRWQQGNVFSCSVMHEALHNHYTQKSLSLSPGK
chain 2: B3 heavy
chain 3: B3 light

Kd (recombinant CD3 proteins [9]): 69.4 nM
koff (recombinant CD3 proteins [9]): 0.00791 s⁻¹
kon (recombinant CD3 proteins [9]): 114000 M⁻¹ s⁻¹
B7: CD3 × CD33-BspAb81 (bispecific antibody)
chain 1: QVQLQESGPGLVKPSQTLSLTCTVSGGSISSGGYYWSWIRQHPGKCLEWIGYIYYSGSTYYNPSLKSRVTISVDTSKDQFSLKLSSVTAADTAVYYCARERKTSLPFDIWGQGTMVTVSSGGGGSGGGGSGGGGSGGGGSNFMLTQPHSVSESPGKTVTISCTRSSGSIASNYVQWYQQRPGSSPTTVIYEDNQRPSGVPDRFSGSIDSSSNSASLTISGLKTEDEAYYYCQSFDSSNRVFGCGTKLTVLDKTHTCPPCPAPEFEGGPSVFLFPPKPKDTLMISRTPEVTCVVVDVSHEDPEVKFNWYVDGVEVHNAKTKPREEQYNSTYRVVSVLTVLHQDWLNGKEYKCKVSNKALPASIEKTISKAKGQPREPQVYTLPPCREEMTKNQVSLWCLVKGFYPSDIAVEWESNGQPENNYKTTPPVLDSDGSFFLYSKLTVDKSRWQQGNVFSCSVMHEALHNHYTQKSLSLSPGK
chain 2: B3 heavy
chain 3: B3 light

Kd (recombinant CD3 proteins [10]): 18.7 nM
koff (recombinant CD3 proteins [10]): 0.00536 s⁻¹
kon (recombinant CD3 proteins [10]): 287000 M⁻¹ s⁻¹
B8: CD3 × CD33-BspAb82 (bispecific antibody)
chain 1: EVQLVESGGGLVKPGGSLRLSCAASGLTFSTYSMNWVRQAPGKCLEWVSSISSSGSYVYYADSVKGRFTMSRDNAKNSLYLQMNSLRAEDTAVYYCARERRELLFDYWGQGTLVTVSSGGGGSGGGGSGGGGSGGGGSNFMLTQPHSVSESPGKTVTISCTRSSGSIASNYVQWYQQRPGSSPTSVIYEDNQRPSGVPDRFSGSIDSSSNSASLTISGLKTEDEADYYCQSYDRSNRVFGCGTKLTVLDKTHTCPPCPAPEFEGGPSVFLFPPKPKDTLMISRTPEVTCVVVDVSHEDPEVKFNWYVDGVEVHNAKTKPREEQYNSTYRVVSVLTVLHQDWLNGKEYKCKVSNKALPASIEKTISKAKGQPREPQVYTLPPCREEMTKNQVSLWCLVKGFYPSDIAVEWESNGQPENNYKTTPPVLDSDGSFFLYSKLTVDKSRWQQGNVFSCSVMHEALHNHYTQKSLSLSPGK
chain 2: B3 heavy
chain 3: B3 light

Kd (recombinant CD3 proteins [11]): 6.06 nM
koff (recombinant CD3 proteins [11]): 0.00186 s⁻¹
kon (recombinant CD3 proteins [11]): 308000 M⁻¹ s⁻¹
B9: CD3 × CD33-BspAb80 (bispecific antibody)
chain 1: QVQLQESGPGLVKPSETLSLTCTVSGGSISSYYWSWIRQPAGKCLEWIGRIYTSGSTKYNPSLKSRVTMSVDTSKNQFSLKLISVTAADTAVYFCARERIRDLYFDYWGQGTLVTVSSGGGGSGGGGSGGGGSGGGGSNFMLTQPHSVSESPGKTVTISCTRTSGSIASNYVQWYQQRPGSSPTTVIYEDNQRPSGVPDRFSGSIDSSSNSASLTISGLKTEDEAAYYCQSYDRSNRVFGCGTKLTVLDKTHTCPPCPAPEFEGGPSVFLFPPKPKDTLMISRTPEVTCVVVDVSHEDPEVKFNWYVDGVEVHNAKTKPREEQYNSTYRVVSVLTVLHQDWLNGKEYKCKVSNKALPASIEKTISKAKGQPREPQVYTLPPCREEMTKNQVSLWCLVKGFYPSDIAVEWESNGQPENNYKTTPPVLDSDGSFFLYSKLTVDKSRWQQGNVFSCSVMHEALHNHYTQKSLSLSPGK
chain 2: B3 heavy
chain 3: B3 light

Kd (recombinant CD3 proteins [12]): 3.28 nM
koff (recombinant CD3 proteins [12]): 0.00134 s⁻¹
kon (recombinant CD3 proteins [12]): 408000 M⁻¹ s⁻¹
B10: CD3 × CD33-BspAb83 (bispecific antibody)
chain 1: EVQLVESGGGLVKPGGSLRLSCVASGFTFSRYSMNWVRQAPGKCLEWVSSISSSSRYTYYADSLKGRFIMSRDNAKNSLFLQMNSLRAEDTAVYYCARNLYNALDYWGQGTLVTVSSGGGGSGGGGSGGGGSGGGGSFMLTQPHSVSESPGKTVTISCTRSSGSIASNYVQWYQQRPGSSPTTVIYEDNQRPSGVPDRFSGSIDSSSNSASLTISGLQTEDEADYYCQSYDSSNRVFGCGTKLTVLDKTHTCPPCPAPEFEGGPSVFLFPPKPKDTLMISRTPEVTCVVVDVSHEDPEVKFNWYVDGVEVHNAKTKPREEQYNSTYRVVSVLTVLHQDWLNGKEYKCKVSNKALPASIEKTISKAKGQPREPQVYTLPPCREEMTKNQVSLWCLVKGFYPSDIAVEWESNGQPENNYKTTPPVLDSDGSFFLYSKLTVDKSRWQQGNVFSCSVMHEALHNHYTQKSLSLSPGK
chain 2: B3 heavy
chain 3: B3 light
